Measurements from paper PMC4363659.

Assays:
Assay in all cases: fluorescence polarization
Details in all cases: FP: 50 mM Tris/HCl pH 8.0, 150 mM NaCl, 1 mM TCEP, 0.1 mg/ml BSA, 0.5 nM DNA, RT 10 min, EMSA: 10 mM HEPES pH 7.5, 100 mM KCl, 5 mM MgSO4, 5% glycerol
[1] = system: His6::AvrBs3ΔN152-C16 (Xanthomonas campestris pv. vesicatoria)
[2] = system: His6::AvrBs3ΔN152 (Xanthomonas campestris pv. vesicatoria)
[3] = system: His6::AvrBs3 (Xanthomonas campestris pv. vesicatoria)

For “E1U20 36-bp UPA20 promoter fragment (fluorescein)”, the Kd [1] was 282 nM, the Kd [2] was 99.2 nM and the Kd [3] was 23.2 nM.
